Read-outs that look alike come from different tables or passages of the source. One block for each binder: values may come before it.
Experiments:
[1] = biological target: T1, recombinant human VISTA (His-tagged) (human, UniProt Q9H7M9 33-194); assay: antigen-binding ELISA; HMBD-002 10 mg/mL in F7, day 0
T1 construct: bought soluble protein (Sino Biological); also called hVISTA; human VISTA polypeptide

[2] = biological target: T1, recombinant human VISTA (His-tagged); assay: antigen-binding ELISA; HMBD-002 in F5, day 10 at 40°C
[3] = biological target: T1, recombinant human VISTA (His-tagged); assay: antigen-binding ELISA; HMBD-002 in F5, day 20 at 40°C
[4] = biological target: T1, recombinant human VISTA (His-tagged); assay: antigen-binding ELISA; HMBD-002 in F7, day 10 at 40°C
[5] = biological target: T1, recombinant human VISTA (His-tagged); assay: antigen-binding ELISA; HMBD-002 in F10, day 20 at 40°C
[6] = biological target: T1, recombinant human VISTA (His-tagged); assay: ELISA on coated human VISTA, antibody diluted in buffer of pH 6.5
[7] = biological target: T1, recombinant human VISTA (His-tagged); assay: SPR (Biacore), VISTA-HIS captured, antibody as analyte, 1:1 model; SPR (Biacore), human VISTA
[8] = biological target: T2, recombinant cynomolgus macaque VISTA (His-tagged) (cynomolgus macaque, UniProt A0A7N9IB00 33-194); assay: SPR (Biacore), NHP VISTA-HIS captured, antibody as analyte, 1:1 model; SPR (Biacore), NHP (cynomolgus) VISTA
T2 construct: also called cyno VISTA; cynomolgus monkey VISTA

[9] = biological target: T1, recombinant human VISTA (His-tagged); assay: ELISA, plate coated with human VISTA
[10] = biological target: human PD-1 (human, UniProt Q15116 25-167); assay: ELISA, plate coated with the antigen
[11] = biological target: T3, human B7H6 (human, UniProt Q68D85 25-262); assay: ELISA, plate coated with the antigen
T3 construct: also called NCR3LG1
T3 sequence (looked up): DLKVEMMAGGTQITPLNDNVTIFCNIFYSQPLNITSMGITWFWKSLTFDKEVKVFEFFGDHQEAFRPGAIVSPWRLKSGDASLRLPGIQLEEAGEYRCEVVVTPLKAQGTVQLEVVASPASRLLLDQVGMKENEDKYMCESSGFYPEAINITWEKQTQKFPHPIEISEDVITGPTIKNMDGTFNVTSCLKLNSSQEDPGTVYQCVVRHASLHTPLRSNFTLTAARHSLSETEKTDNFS

[12] = biological target: T4, human B7H7 (human, UniProt Q9UM44 23-344); assay: ELISA, plate coated with the antigen
T4 construct: also called HHLA2
T4 sequence (looked up): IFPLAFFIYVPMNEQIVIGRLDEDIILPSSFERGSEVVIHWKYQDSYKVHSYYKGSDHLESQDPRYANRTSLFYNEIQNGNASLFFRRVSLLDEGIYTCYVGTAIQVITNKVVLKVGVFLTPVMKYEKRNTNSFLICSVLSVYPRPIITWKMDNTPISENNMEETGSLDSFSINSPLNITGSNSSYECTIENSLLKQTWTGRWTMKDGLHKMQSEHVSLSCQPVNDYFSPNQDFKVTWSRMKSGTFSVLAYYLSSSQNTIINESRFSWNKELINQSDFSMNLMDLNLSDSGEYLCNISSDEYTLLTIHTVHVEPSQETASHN

[13] = biological target: T1, recombinant human VISTA (His-tagged); assay: ELISA, target protein coated, % Binding against log M of antibody
[14] = biological target: T2, recombinant cynomolgus macaque VISTA …; assay: as above
[15] = biological target: T5, recombinant mouse VISTA (His-tagged) (mouse, UniProt Q9D659 33-191); assay: as above
T5 construct: also called murine VISTA; mVISTA
T5 sequence (looked up): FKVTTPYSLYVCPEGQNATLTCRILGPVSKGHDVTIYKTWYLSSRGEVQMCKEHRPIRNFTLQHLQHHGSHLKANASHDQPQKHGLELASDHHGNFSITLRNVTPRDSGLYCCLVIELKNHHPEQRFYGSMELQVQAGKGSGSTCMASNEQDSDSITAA

[16] = biological target: T6, human PD-L1 (human, UniProt Q9NZQ7 19-239); assay: as above
T6 construct: captured through a His tag in the BLI experiments; also called hPD-L1; B7H1/PDL-1

[17] = biological target: human HER3 (human, UniProt P21860 20-643); assay: as above
[18] = biological target: T2, recombinant cynomolgus macaque VISTA …; assay: BLI (Octet QK384): His-tagged cynomolgus VISTA on anti-Penta-HIS tips, V4 1433 to 179.1 nM as analyte, global fit
[19] = biological target: T1, recombinant human VISTA (His-tagged); assay: ELISA, plate coated with human VISTA; remark: listed apart in the source

T6 sequence (Q9NZQ7 19-239 limits assumed): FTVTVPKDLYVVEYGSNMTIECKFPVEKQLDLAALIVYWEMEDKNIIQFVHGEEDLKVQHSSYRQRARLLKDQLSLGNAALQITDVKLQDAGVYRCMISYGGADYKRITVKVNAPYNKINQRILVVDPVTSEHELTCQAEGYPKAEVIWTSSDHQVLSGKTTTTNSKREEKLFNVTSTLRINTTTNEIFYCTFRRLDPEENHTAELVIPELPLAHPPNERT
Sequence of human PD-1 (Q15116 25-167 limits assumed): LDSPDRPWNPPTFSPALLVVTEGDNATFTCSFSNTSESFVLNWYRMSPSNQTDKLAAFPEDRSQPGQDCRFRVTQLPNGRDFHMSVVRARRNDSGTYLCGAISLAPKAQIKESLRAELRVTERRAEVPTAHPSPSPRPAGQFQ

- EC50 [1]: 0.0289 nM
- EC50 [2]: 0.0341 nM
- EC50 [3]: 0.0239 nM
- EC50 [4]: 0.0339 nM
- EC50 [5]: 0.0235 nM
- EC50 [6]: 0.0363 nM
- Kd [7]: 0.407 nM
- Kd [8]: 0.367 nM
B1: V4-C26 hIgG4 (antibody)
heavy: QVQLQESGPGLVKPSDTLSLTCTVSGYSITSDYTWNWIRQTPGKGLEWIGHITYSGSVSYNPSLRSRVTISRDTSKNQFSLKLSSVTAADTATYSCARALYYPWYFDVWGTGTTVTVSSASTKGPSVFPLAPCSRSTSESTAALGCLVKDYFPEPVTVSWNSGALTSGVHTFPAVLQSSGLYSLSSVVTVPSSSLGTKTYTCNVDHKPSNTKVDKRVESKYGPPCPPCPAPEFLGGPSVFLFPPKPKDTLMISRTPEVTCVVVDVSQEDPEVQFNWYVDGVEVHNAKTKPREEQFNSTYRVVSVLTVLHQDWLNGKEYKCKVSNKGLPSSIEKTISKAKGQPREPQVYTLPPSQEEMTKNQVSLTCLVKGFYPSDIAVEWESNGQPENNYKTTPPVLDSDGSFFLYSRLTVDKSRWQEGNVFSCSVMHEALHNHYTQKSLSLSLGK
light: EIVLTQSPATLSLSPGERATLSCRASSSVGYIHWYQQKPGQAPRPIIYTTSNRATGIPARFSGSGSGTDNTLTISSLEPEDSAVYYCQQWSSYPPITFGGGTKLEVKRTVAAPSVFIFPPSDEQLKSGTASVVCLLNNFYPREAKVQWKVDNALQSGNSQESVTEQDSKDSTYSLSSTLTLSKADYEKHKVYACEVTHQGLSSPVTKSFNRGEC
notes: human IgG4 (S228P)/kappa format; also called HMBD-002; HMBD-002-V4C26

- EC50 (read off the curve) [9]: ~0.01 nM
- binding result [10]: no binding (tested: log -7.5 M)
- binding result [11]: no binding (tested: log -7.5 M)
- binding result [12]: no binding (tested: log -7.5 M)
- EC50 [13]: 0.256 nM
- EC50 [14]: 0.282 nM
- EC50 [15]: 5.93 nM
- koff [18]: < 1e-07 s⁻¹
- kon [18]: 40200 M⁻¹ s⁻¹
B2: anti-VISTA clone 4M2-C12 IgG1 (antibody)
heavy: not shown
light: DIVITQTPAILSTSPGEKVTMTCRASSSVGYIHWYQQKPGSSPKPWIYATSNLASGVPARFSGSGSGTSNSLTITRVEAEDAATYYCQQWSSYPPITFGGGTKLEVKRTVAAPSVFIFPPSDEQLKSGTASVVCLLNNFYPREAKVQWKVDNALQSGNSQESVTEQDSKDSTYSLSSTLTLSKADYEKHKVYACEVTHQGLSSPVTKSFNRGEC
notes: mouse variable regions on human IgG1/kappa constant regions; also called V4; V4pr
- binding result [16]: no binding (tested: about 10^-6.7 M (log M axis))
- binding result [17]: no binding (tested: about 10^-6.2 M (log M axis))

- EC50 (read off the curve) [19]: ~0.01 nM
B3: anti-VISTA clone V4-C27 IgG1 (antibody, V domains shown)
VH: QVQLQESGPGLVKPSDTLSLTCTVSGYSITSDYTWNWIRQTPGKGLEWIGHITYSGSVSYNPSLRSRVTISRDTSKNQFSLKLSSVTAADTATYSCARALYYPWYFDVWGTGTTVTVSS
VL: EIVLTQSPATLSLSPGERATLSCRASSSVGYIHWYQQKPGQAPRPLIYATYNRATGIPARFSGSGSGTDNTLTISSLEPEDSAVYYCQQWSSYPPITFGGGTKLEVKR
